Assays:
BST-2 = test: Adhesion of cancer cells to plates coated with recombinant BST-2; assay type: cell-based; conditions: plates coated with 0, 20 or 50 ng rBST-2
Method: (§1) FIG. 22. […] PKH67Green-labeled shControl (shCTL)- or sh413 (shBST-2)-expressing (A) 4T1 or (B) E0771 cells were allowed to adhere to plates that were coated with 0, 20 or 50 ng of recombinant BST-2 (rBST-2) and fluorescence assessed with a plate reader. (C) Representative confocal images of cells attached to wells coated with increasing concentrations of rBST-2. (D) Quantification of PKH67Green-labeled MCF-7 cells expressing Vector, WT or C3A BST-2 adhered to plates that were coated with 0, 20 or 50 ng of rBST-2. […] Cells that adhered to WT MCF-7 monolayers were quantified and represented as relative fluorescence intensity. Each data point corresponds to six different wells analyzed. Error bars correspond to SEM. Significance was taken at P<0.05* and P<0.01**. n.s=not significant.
Low BST-2 expressing human breast cancer cells (MCF-7) stably expressing WT BST-2 (WT) efficiently binds BST-2 ECD while similar cells stably expressing dimerization mutant BST-2 (C3A) are defective in binding BST-2 ECD. Treatment of BST-2-expressing breast cancer cells with BST-2 ECD blocks cancer cell-to-cancer clustering (FIG. 22).

MCF-7 cells = test: Adhesion to MCF-7 WT monolayers blocked with rBST-2; assay type: cell-based, human
Method: as §1

B1: rBST-2: recombinant extracellular domain (ECD) of BST-2 (protein, UniProt Q10589 49-161, looked up)
extracellular domain: NSEACRDGLRAVMECRNVTHLLQQELTEAQKGFQDVEAQAATCNHTVMALMASLDAEKAQGQKKVEELEGEITTLNHKLQDASAEVERLRRENQVLSVRIADKKYYPSSQDSS
modifications: extracellular domain
- binding to BST-2 (BST-2): binds to BST-2 in vitro
- BST-2-mediated adhesion of breast cancer cells (MCF-7 cells): prevents BST-2-mediated adhesion of breast cancer cells
